# Laboratory results taken from US20240294613A1 (BROAD INSTITUTE, published 2024).
# Columns and labels:
# [1] = molecular target: SARS-COV-2 full-length S (containing G at position 614) (SARS-COV-2, UniProt P0DTC2 14-1273); experiment: cell-based or functional assay
# [2] = molecular target: SARS-COV-2 full-length S (containing G at position 614) (SARS-COV-2, UniProt P0DTC2 14-1273); experiment: cell-based or functional assay; remark: listed apart in the source
Binder,"IC50, SARS-COV-2 pseudovirus neutralization [1]",molar neutralization ratio (MNR) [1],PV IC50 [2]
"BG10-8 dimeric IgA (antibody, V domains shown) VH: QMELVESGGGLVKPGGSLRLSCASSGFSLGDYYMTWIRQAPGKGLEWVSYISRSDGKTFYADSVKGRFTLSTDDGKKSLYLQMNSLRAEDTAVYYCVRGEGGPHDAFDIWGQGTMVTVSS VL: TSYVLTQPPSVSVAPGQTARISCGGNNIESKTVHWYQQKPGQAPILVVYDDNDRPSGIPERFSGSNSGNTATLSISRAEAGDEADYYCQVWDSSRDLRVFGGGTKLSVLG",0.026 µg/mL,10.9,–
"BG1-15 dimeric IgA (antibody, V domains shown) VH: DVQLVESGGVVVQPGGSLRLACAASGFTFDDYAMHWVRQAPGKGLEWVSLITRDGGSTHYADSVKGRFTISRDNSKNSLYLQMNSLRLEDTAFYYCAKDGRRDGYNHALDNWGQGTLVTVSS VL: DIQMTQSPSTLSASVGDRVTITCRASQSISSWLAWYQQKPGKAPKLLINRASSLESGVPSRFSGSGSGTEFTLTISSLQPDDFATYYCQQYSSYPTFGQGTKVEIKR",6.5 µg/mL,–,–
"BG7-15 (antibody, V domains shown) VH: QVQLVQSGAEVKKPGASVKVSCKASGYTFTSYAISWVRQAPGQGLEWMGWVSAYNGNTNYAQKLQGRVTMTTDTSTNTAYMELRSLRSDDTAIYYCAIPYSSVTFDCWGQGTLVTVSS VL: EIVLTQSPGTLSLSPGERATLSCRASQSVSGTFLAWYQQKPGQAPRLLISGASSRATGIPDRFSGSGSGTDFTLTISRLEPEDFAVYYCQQYGSSRPTFGQGTKLEIKR",–,–,0.016 µg/mL
"BG7-18 (antibody, V domains shown) VH: EVQLMESGGGLIQPGGSLRLSCAASGFIVSSNYMSWVRQAPGKGLEWVSVIYSGGGTDYADSVKGRFTISRDNSKNTLFLQMNSLRAEDTAVYYCARGAAMVKELFDYWGQGTQVTVSS VL: not shown",–,–,0.083 µg/mL
